Measured values from the supplement of paper PMC9732359.
± gives the uncertainty stated by the source.

Test: protein stability index of a GFP-peptide fusion (yeast GPS) (PSI 1-4); higher = more stable; sorted into four equal gates, so the index is relative within each strain
How it was run: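 The protein stability index of a peptide was calculated by multiplying its read frequency in each gate by that gate's number and adding the products. The peptides were tiled 17-residue stretches of yeast proteins, fused downstream of GFP on a Cherry-expressing plasmid and carried in yeast as a pooled library. Mid-log cultures in leucine-free medium were sorted into four equal gates by GFP/Cherry ratio, and each gate's plasmids were PCR-amplified and Illumina-sequenced.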

Sequence	protein stability index (doa10∆)	protein stability index (pdr5∆)	protein stability index (san1∆)	protein stability index (ubr1∆)
RKKKFVLDVDPKYAKQK [ISW2]	2.91 ± 0.077	2.45 ± 0.066	2.25 ± 0.12	2.66 ± 0.076
VGDIVDIKANGSIQKGM [RPL21A]	2.35 ± 0.072	1.9 ± 0.065	1.62 ± 0.089	2.19 ± 0.047
DDDLFETLVLSYFSPIN [YCG1]	2.23 ± 0.069	1.44 ± 0.05	1.36 ± 0.093	1.35 ± 0.032
HIEKLENEFVVLLDARD [CDC53]	3.35 ± 0.088	3.05 ± 0.081	2.9 ± 0.14	3.27 ± 0.091
TAVNGIDTDLFGAPNNP [YGL172W/NUP49]	3.1 ± 0.083	3.23 ± 0.08	3.25 ± 0.058	3.19 ± 0.053
KFGYILCVLDYDNIDIQ [RPB7]	2.02 ± 0.1	2.08 ± 0.09	3.13 ± 0.11	2.04 ± 0.13
KGEVYTIPLGGSVHKLP [PRE3]	2.97 ± 0.065	2.95 ± 0.082	2.84 ± 0.088	3.04 ± 0.044
RQCFQDNCCDFKVRTNL [MED1]	3.28 ± 0.053	3.23 ± 0.063	3.42 ± 0.04	3.21 ± 0.038
RAIYSYLSGAIPNQEVL [YDL116W/NUP84]	2.4 ± 0.066	2.58 ± 0.079	2.5 ± 0.089	2.76 ± 0.055
WVNNPKKRFTPHTVIRR [YDL088C/ASM4]	3.42 ± 0.23			
IDPDTKAPNAVVITFEK [RPB11]		3.22 ± 0.17	3.09 ± 0.094	2.93 ± 0.15
VKIVDKDGIRQVDDFQA [PRE1]	2.86 ± 0.14	2.9 ± 0.11		
KVPDSTYDMVGGLTKQI [RPT6]	2.27 ± 0.15	2.63 ± 0.17	1.93 ± 0.22	2.57 ± 0.077
DKELRKTKFQYKFLDQN [YIL149C/MLP2]	2.72 ± 0.084	2.96 ± 0.075	2.96 ± 0.064	2.98 ± 0.059
ASSTPIPVLGKPTDATG [YOR098C/NUP1]	2.43 ± 0.055	2.88 ± 0.055	2.6 ± 0.05	2.42 ± 0.036
LKNMLYVLSTAVEFESV [BRR2]	1.77 ± 0.038	1.58 ± 0.037	1.88 ± 0.081	1.42 ± 0.032
TMGMRALLKLSVKLKQK [DIS3]	1.28 ± 0.059	1.59 ± 0.063	1.21 ± 0.072	1.33 ± 0.07
SDSSKPAFSFGTKSNEK [YJL041W/NSP1]	2.97 ± 0.073	2.19 ± 0.058	2.79 ± 0.076	2.75 ± 0.041
SQTPSFNTNSSFTPSTV [YOR098C/NUP1]	2.4 ± 0.033	2.671 ± 0.025	2.52 ± 0.033	2.898 ± 0.026
NGQPLNQNFSLTFQPQQ [GRR1]	3.09 ± 0.051	3.12 ± 0.047	3.04 ± 0.051	3.01 ± 0.043
NKSTSSEAEYSKDIETL [YIL149C/MLP2]	3.19 ± 0.089	2.97 ± 0.099	3.21 ± 0.062	3.26 ± 0.072
LILAGQVKVKGQLGEMA [YCS4]	3.49 ± 0.1	3.35 ± 0.097	3.12 ± 0.069	2.87 ± 0.072
IDIDKLIQLGVKPLESS [SRP72]	3.19 ± 0.086	2.87 ± 0.068	3.04 ± 0.055	2.82 ± 0.054
VAGAIRAGIIIAKLSVI [RPS2]	1.91 ± 0.1	2.35 ± 0.098	1.4 ± 0.13	2.65 ± 0.083
AWRTLVGVSHTNEEVRN [CYT1]		2.98 ± 0.13	1.92 ± 0.15	2.18 ± 0.094
YTDELEEDVYLDPLARV [FAS2]	3.33 ± 0.095	3.32 ± 0.1	3.54 ± 0.07	3.44 ± 0.053
LQEKFLNQIATLKIHLK [IRR1]	1.22 ± 0.12	1.4 ± 0.11		1.03 ± 0.093

Sequence	protein stability index (doa10∆)	protein stability index (pdr5∆)	protein stability index (san1∆)	protein stability index (ubr1∆)
EKIKSKKINRRNETSVD [YCG1]	3.38 ± 0.094	3.09 ± 0.085	3.19 ± 0.08	3.33 ± 0.069
NIGTPSFNMAQIPQQLY [SNF5]	1.93 ± 0.068	2.08 ± 0.072	2.17 ± 0.056	2.04 ± 0.047
PMLMANNDVFTIGPYRA [SSN3]	3.04 ± 0.07	3.3 ± 0.082	3.13 ± 0.072	3.14 ± 0.058
KPTSPFIDSICKLFDKI [SRB8]	1.56 ± 0.04	1.93 ± 0.035	1.56 ± 0.055	1.41 ± 0.034
PTDSSKILQKRSISKEL [SIR3]	2.76 ± 0.066	2.98 ± 0.086	3.02 ± 0.065	2.85 ± 0.081
GEIGDFFSSDWRFLQIL [POP1]	2.73 ± 0.089	2.79 ± 0.09	2.94 ± 0.066	2.55 ± 0.093
TQARVITGNKIMRILKS [RPS13]	1.41 ± 0.17	1.24 ± 0.081	1.18 ± 0.12	1.1 ± 0.079
CTLTADGAYALSASWDK [ASC1]	3.08 ± 0.051	3.25 ± 0.051	3.19 ± 0.075	3.19 ± 0.038
GYDRHITIFSPEGRLYQ [SCL1]	2.76 ± 0.11	2.84 ± 0.082	2.96 ± 0.057	3.06 ± 0.077
RKANREEKLKANKEKKR [RPL24B]	2.86 ± 0.074	1.96 ± 0.065	2.12 ± 0.087	2.27 ± 0.053
APIPKGRVKYTKRQKHF [POP1]	1.2 ± 0.13	1.9 ± 0.12	2.2 ± 0.13	1.77 ± 0.082
PNFTGIDKLMLSPSDQF [SSN2]	1.39 ± 0.08	1.33 ± 0.068		1.61 ± 0.067
AIRKNGQIDFWYQFSNS [SIN4]	2.09 ± 0.087	2.08 ± 0.08	1.77 ± 0.082	2.52 ± 0.056
ISLLKNRRKQSFVLNKN [RPN4]	3.52 ± 0.25	3.06 ± 0.25	3.04 ± 0.15	3.21 ± 0.14
ILTSLMRSKLEKLTLVT [CSN9]	2.42 ± 0.081	3.03 ± 0.064	2.87 ± 0.06	2.67 ± 0.059
SFLESVIRDSVTYTEHA [HHF1]	2.82 ± 0.077	2.29 ± 0.064	2.17 ± 0.058	2.47 ± 0.049
NYHPNASITPYKLVNKN [RPN4]	1.84 ± 0.063	2.38 ± 0.078	2.59 ± 0.083	2.05 ± 0.068
SNAAGADDAISMHLLKD [SRB8]	3.17 ± 0.1	2.49 ± 0.065	3.07 ± 0.099	2.76 ± 0.055
KTLCARAVANRTDATFI [RPT1]	1.39 ± 0.12	1.37 ± 0.12	1.26 ± 0.15	1.37 ± 0.18
QNFENDFSLRYISNLLY [REC8]	2.19 ± 0.074	2.29 ± 0.076	2.02 ± 0.11	2.06 ± 0.043
IEIKISDPLTVFSESCS [SNU114]	2.33 ± 0.071	2.55 ± 0.073	2.42 ± 0.052	2.45 ± 0.06
CANCVKERIVRAFLIEE [RPL34B]		3.47 ± 0.26		
VSAAEDESLIRELYKYV [PRP28]	3.27 ± 0.11	3.27 ± 0.13	2.95 ± 0.084	2.94 ± 0.098
RQIRPIMERIKSSLSLR [ITC1]	1.26 ± 0.06	1.65 ± 0.075	1.35 ± 0.087	1.42 ± 0.054
CDSYLDADKELSFEINV [BRR2]	2.64 ± 0.08	2.73 ± 0.062	2.92 ± 0.057	2.7 ± 0.047
SKAQQKTAEQVAAERAA [RPL7A]	2.84 ± 0.064	2.88 ± 0.052	2.74 ± 0.054	2.68 ± 0.049
